Sequences and labels used below:
T1: human 5T4-His protein (human, UniProt Q13641 32-355)
T1 construct: also called recombinant 5T4 protein (human 5T4-his tag); human 5T4 protein; not shown: His tag
T1 sequence (looked up): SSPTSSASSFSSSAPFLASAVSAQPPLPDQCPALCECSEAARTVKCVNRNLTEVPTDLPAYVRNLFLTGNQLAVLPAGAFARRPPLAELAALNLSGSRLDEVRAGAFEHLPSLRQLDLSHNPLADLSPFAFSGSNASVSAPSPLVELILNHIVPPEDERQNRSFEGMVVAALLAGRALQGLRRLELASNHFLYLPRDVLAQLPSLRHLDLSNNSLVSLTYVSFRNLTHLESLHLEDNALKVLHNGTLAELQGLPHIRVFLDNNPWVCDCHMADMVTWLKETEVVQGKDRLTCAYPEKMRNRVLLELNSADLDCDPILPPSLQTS

B1: Hu14G12-10 (antibody, V domains shown)
VH: EVQLVQSGAEVKKPGATVKISCKVSGYAFSSSWMNWVKQAPGKGLEWIGRIYREDGHTNYNGKFKGRATITADTSTTTAYMELSSLRSEDTAVYFCANGGAMDYWGQGTLVTVSS
VL: DIQMTQSPSSLSASVGDRVTITCRASQDISNYLNWYQQKPGKAPKLLIYYTSRLHSGVPSRFSGSGSGTDYTFTISSLQPEDIATYFCQQDNTLPWTFGGGTKLEIK
notes: humanized
B2: Hu14G12-2 (antibody, V domains shown)
VH: B1 VH with K38Q, I48M, A68V, T77D, F95Y, N98T
VL: B1 VL
notes: humanized
B3: Hu14G12-6 (antibody, V domains shown)
VH: B1 VH with K38Q, A68V, T77D
VL: B1 VL
notes: humanized
B4: Hu14G12-23 (antibody, V domains shown)
VH: QVQLVQSGAEVKKPGSSVKVSCKASGYAFSSSWMNWVRQAPGQGLEWMGRIYREDGHTNYNGKFKGRVTITADKSTTTAYMELSSLRSEDTAVYYCANGGAMDYWGQGTLVTVSS
VL: B1 VL with L104V
notes: humanized
B5: Hu14G12-14 (antibody, V domains shown)
VH: B1 VH with V24A, T91S
VL: B1 VL
notes: humanized
B6: Hu14G12-33 (antibody, V domains shown)
VH: B4 VH with S16A, I70M
VL: B1 VL with L104V
notes: humanized
B7: Hu14G12-21 (antibody, V domains shown)
VH: B4 VH with Y27G, A28T, R38K, M48I, V68A, T77S, Y95F, L110T
VL: B1 VL with A43V, Y71F, F73L, I83V, F87Y
notes: humanized
B8: Hu14G12-35 (antibody, V domains shown)
VH: B4 VH with S16A, I70M
VL: EIVMTQSPATLSLSPGERATLSCRASQDISNYLNWYQQKPGQAPRLLIYYTSRLHSGIPARFSGSGSGTDYTLTISSLEPEDIAVYFCQQDNTLPWTFGGGTKVEIK
notes: humanized
B9: Hu14G12-17 (antibody, V domains shown)
VH: B4 VH with Y27G, A28T, R38K, M48I, R67K, V68A, I70L, T77S, Y95F, L110T
VL: B1 VL with A43V, Y71F, F73L, I83V, F87Y
notes: humanized
B10: Hu14G12-22 (antibody, V domains shown)
VH: B4 VH with Y27G, A28T, R38K, M48I, V68A, T77S, Y95F, L110T
VL: B1 VL with A43V, F73L, I83V
notes: humanized
B11: Hu14G12-19 (antibody, V domains shown)
VH: B4 VH with Y27G, A28T, R38K, M48I, V68A, I70L, T77S, Y95F, L110T
VL: B1 VL with A43V, Y71F, F73L, I83V, F87Y
notes: humanized
B12: Hu14G12-36 (antibody, V domains shown)
VH: B4 VH with S16A, I70M
VL: DIVMTQSPDSLAVSLGERATINCRASQDISNYLNWYQQKPGQPPKLLIYYTSRLHSGVPDRFSGSGSGTDYTLTISSLQAEDIAVYFCQQDNTLPWTFGGGTKVEIK
notes: humanized
B13: Hu14G12-20 (antibody, V domains shown)
VH: B4 VH with Y27G, A28T, R38K, M48I, V68A, I70L, T77S, Y95F, L110T
VL: B1 VL with A43V, F73L, I83V
notes: humanized
B14: Hu14G12-26 (antibody, V domains shown)
VH: B4 VH
VL: B12 VL
notes: humanized
B15: Hu14G12-42 (antibody, V domains shown)
VH: B4 VH with S16A, G44R, T76A
VL: B1 VL with S10T, D70E, F73L, E81D, L104V
notes: humanized
B16: Hu14G12-25 (antibody, V domains shown)
VH: B4 VH
VL: B8 VL
notes: humanized
B17: Hu14G12-46 (antibody, V domains shown)
VH: B4 VH with S16A, I70M, S84R, E89D
VL: B12 VL
notes: humanized
B18: Hu14G12-31 (antibody, V domains shown)
VH: B4 VH with S16A, I70M, T76I, S85R, E89D
VL: B12 VL
notes: humanized
B19: Hu14G12-41 (antibody, V domains shown)
VH: B4 VH with S16A, G44R, T76A
VL: B12 VL
notes: humanized
B20: Hu14G12-27 (antibody, V domains shown)
VH: B4 VH
VL: B1 VL with S10T, D70E, F73L, E81D, L104V
notes: humanized
B21: Hu14G12-40 (antibody, V domains shown)
VH: B4 VH with S16A, G44R, T76A
VL: B8 VL
notes: humanized
B22: Hu14G12-30 (antibody, V domains shown)
VH: B4 VH with S16A, I70M, T76I, S85R, E89D
VL: B8 VL
notes: humanized
B23: Hu14G12-38 (antibody, V domains shown)
VH: B4 VH with S16A, G44R, T76A
VL: B1 VL with L104V
notes: humanized
B24: Hu14G12-39 (antibody, V domains shown)
VH: B4 VH with S16A, G44R, T76A
VL: B1 VL with F73L, L104V
notes: humanized
B25: Hu14G12-34 (antibody, V domains shown)
VH: B4 VH with S16A, I70M
VL: B1 VL with F73L, L104V
notes: humanized
B26: Hu14G12-45 (antibody, V domains shown)
VH: B4 VH with S16A, I70M, S84R, E89D
VL: B8 VL
notes: humanized
B27: Hu14G12-24 (antibody, V domains shown)
VH: B4 VH
VL: B1 VL with F73L, L104V
notes: humanized

Changes are numbered by the printed parent chain.

The first experiment concerns the target T1, human 5T4-His protein. As to the kind of experiment: SPR Biacore, Protein A capture. On the procedure: The binding of the 14G12 humanized antibodies to recombinant 5T4 protein (human 5T4-his tag) was tested with Biacore using a capture method. The mAbs were captured using Protein A chip. Serial dilution of human 5T4-his tag protein was injected over captured antibody for 120 s-180 s at a flow rate of 30 μl/min. The antigen was allowed to dissociate for 360 s-1000 s. All the experiments were carried out on a Biacore T200. Data analysis was carried out using the Biacore T200 evaluation software.
On the technique in general: Surface plasmon resonance follows binding to a sensor surface in real time, without labels.
In the case of B1, binding was put at a Kd of 2.42 nM, the koff (commonly the rate constant with which the complex falls apart) was 0.000512 s⁻¹ and the association rate constant (kon) (commonly the rate constant with which the complex forms) was 212000 M⁻¹ s⁻¹.

In the case of B2, the affinity, expressed as Kd, was 21.5 nM; the dissociation rate constant (koff) amounted to 0.00436 s⁻¹; the kon came out at 203000 M⁻¹ s⁻¹.

For B3, binding was put at a Kd of 2.68 nM, the koff stood at 0.00077 s⁻¹ and the kon was 288000 M⁻¹ s⁻¹.

As for B4, the Kd (commonly a measure of binding affinity in units of concentration) was determined as 2.58 nM, the koff was determined as 0.000908 s⁻¹ and the kon was 352000 M⁻¹ s⁻¹.

Consider B5, for which the affinity, expressed as Kd, was 3.39 nM; the koff stood at 0.000701 s⁻¹; the kon was 207000 M⁻¹ s⁻¹.

In a further experiment the target is T1, human 5T4-His protein. The experiment in a line: ELISA, coated 5T4-His. As for the experimental part: To evaluate the binding activity of 14G12 humanized antibodies to human 5T4, the 14G12 chimeric antibody along with 14G12 humanized mAbs were subjected to ELISA test.
Briefly, microtiter plates were coated with human 5T4-His protein at 1 μg/ml in PBS, 100 μl/well at 4° C. overnight, then blocked with […]. Serial dilutions of antibodies were added to each well and incubated for 1 hour at 37° C. The plates were washed with PBS/Tween and then incubated with Goat Anti-Human IgG-HRP for 30 mins at 37° C. After washing, the plates were developed with TMB substrate and analyzed by spectrophotometer at OD 450 nm. As shown in FIG. 10 and Table 6, most of the humanized antibodies bound to human 5T4 at high activity.
A general note: An ELISA detects its analyte on a solid surface through an enzyme-linked reagent.
In the case of B6, the half-maximal effective concentration (EC50) (commonly the concentration at which the effect is half-maximal) was 0.011 µg/mL.

Regarding B7, it took 0.4 µg/mL to reach a half-maximal effect (EC50).

B8 yielded an EC50 of 0.013 µg/mL.

B9 returned an EC50 of 0.52 µg/mL. This EC50 lies about 40-fold higher than the previous one.

Take B10: a half-maximal response (EC50) required 0.45 µg/mL.

B11 came in with an EC50 of 0.4 µg/mL.

Take B12: the midpoint of the response, the EC50, lay at 0.0068 µg/mL.

In the case of B13, the EC50 worked out at 0.32 µg/mL.

The molecule B1 yielded an EC50 of 0.015 µg/mL. This EC50 is about 21-fold lower than that of the molecule before.

In turn, B14 gave a half-maximal effective concentration (EC50) of 0.0069 µg/mL.

As for B15, the response was half-maximal at 0.0078 µg/mL (EC50).

For B16, it took 0.006 µg/mL to reach a half-maximal effect (EC50).

The molecule B2 returned a 50% effective concentration (EC50) of 0.021 µg/mL.

Regarding B17, the concentration for a half-maximal effect (EC50) was found to be 0.023 µg/mL. The EC50 values of the last two molecules are within 1.5-fold of each other.

B18 gave an EC50 of 0.0084 µg/mL. Compared with the last molecule, the EC50 is about 2.7-fold lower.

B19 registered an EC50 of 0.0047 µg/mL.

B20 gave a 50% effective concentration (EC50) of 0.0078 µg/mL. Compared with the last molecule, the EC50 is about 1.7-fold higher.

B21 gave a concentration giving a half-maximal response (EC50) of 0.028 µg/mL. This EC50 lies about 3.6-fold higher than the previous one.

In turn, B22 returned a concentration for a half-maximal effect (EC50) of 0.01 µg/mL.

With B3, the EC50 turned out to be 0.01 µg/mL.

Take B4: the response was half-maximal at 0.0071 µg/mL (EC50).

As for B23, the EC50 worked out at 0.0064 µg/mL. This EC50 and that of the molecule before are within 1.5-fold of each other.

Molecule B24 yielded an EC50 of 0.0069 µg/mL.

As for B5, the concentration giving a half-maximal response (EC50) was found to be 0.014 µg/mL. Against the preceding molecule, the EC50 is about 2-fold higher.

Consider B25, for which the concentration giving a half-maximal response (EC50) was determined as 0.0087 µg/mL.

B26 returned an EC50 of 0.0082 µg/mL.

B27 came in with a half-maximal effective concentration (EC50) of 0.0049 µg/mL.

The record behind these values is patent US20250154277A1 (CONCEPT TO MEDICINE BIOTECH, published 2025).
